Reference: patent US20150344570A1 (published 2015)

B1: GpH7-B3 variant E269_01G/GpL16-k0 (antibody, human IgG1, kappa)
heavy: not shown
light: DIVMTQSPLSLPVTPGEPASISCQASESLVHSNRNTYLHWYLQKPGQSPQLLIYKVSNRFSGVPDRFSGSGSGTDFTLKISRVEAEDVGVYYCSQNTHVPPTFGQGTKVEIERTVAAPSVFIFPPSDEQLKSGTASVVCLLNNFYPREAKVQWKVDNALQSGNSQESVTEQDSKDSTYSLSSTLTLSKADYEKHKVYACEVTHQGLSSPVTKSFNRGEC
notes: also called Ho Ab E269_01G
B2: GpH7-B3 variant A327_06M/GpL16-k0 (antibody, human IgG1, kappa)
heavy: not shown
light: B1 light
notes: also called Ho Ab A327_06M
B3: GpH7-B3 variant A330_11K/GpL16-k0 (antibody, human IgG1, kappa)
heavy: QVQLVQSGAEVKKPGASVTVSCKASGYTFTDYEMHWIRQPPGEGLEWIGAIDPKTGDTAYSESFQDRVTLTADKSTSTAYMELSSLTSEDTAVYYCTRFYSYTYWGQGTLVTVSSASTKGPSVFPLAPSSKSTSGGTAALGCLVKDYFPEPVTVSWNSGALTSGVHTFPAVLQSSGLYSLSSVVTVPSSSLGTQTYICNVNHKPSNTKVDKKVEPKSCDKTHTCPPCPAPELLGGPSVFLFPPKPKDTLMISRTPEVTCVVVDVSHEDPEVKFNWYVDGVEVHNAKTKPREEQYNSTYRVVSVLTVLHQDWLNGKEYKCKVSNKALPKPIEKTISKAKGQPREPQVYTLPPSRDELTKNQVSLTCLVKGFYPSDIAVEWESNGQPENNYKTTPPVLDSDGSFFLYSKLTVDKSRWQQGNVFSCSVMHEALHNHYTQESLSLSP
light: B1 light
notes: also called Ho Ab A330_11K
B4: GpH7-B3 variant E269_14T/GpL16-k0 (antibody, human IgG1, kappa)
heavy: not shown
light: B1 light
notes: also called Ho Ab E269_14T
B5: GpH7-B3 variant E269_07I/GpL16-k0 (antibody, human IgG1, kappa)
heavy: not shown
light: B1 light
notes: also called Ho Ab E269_07I
B6: GpH7-B3 variant A330_09D/GpL16-k0 (antibody, human IgG1, kappa)
heavy: not shown
light: B1 light
notes: also called Ho Ab A330_09D
B7: GpH7-B3 variant A330_16H/GpL16-k0 (antibody, human IgG1, kappa)
heavy: not shown
light: B1 light
notes: also called Ho Ab A330_16H
B8: GpH7-B3 variant A327_09D/GpL16-k0 (antibody, human IgG1, kappa)
heavy: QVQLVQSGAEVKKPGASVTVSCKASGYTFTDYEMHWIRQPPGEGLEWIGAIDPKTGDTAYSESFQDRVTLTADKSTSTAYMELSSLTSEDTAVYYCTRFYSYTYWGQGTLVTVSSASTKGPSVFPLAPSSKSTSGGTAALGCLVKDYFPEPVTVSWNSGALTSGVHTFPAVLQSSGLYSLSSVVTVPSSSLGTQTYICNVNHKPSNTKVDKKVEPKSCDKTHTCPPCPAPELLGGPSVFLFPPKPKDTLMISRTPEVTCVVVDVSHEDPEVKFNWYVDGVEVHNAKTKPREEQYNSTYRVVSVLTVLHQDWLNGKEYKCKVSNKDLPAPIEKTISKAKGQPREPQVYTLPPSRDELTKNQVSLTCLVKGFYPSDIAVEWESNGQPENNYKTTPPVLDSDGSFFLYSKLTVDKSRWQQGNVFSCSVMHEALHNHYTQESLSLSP
light: B1 light
notes: also called Ho Ab A327_09D
B9: GpH7-B3 variant E269_03V/GpL16-k0 (antibody, human IgG1, kappa)
heavy: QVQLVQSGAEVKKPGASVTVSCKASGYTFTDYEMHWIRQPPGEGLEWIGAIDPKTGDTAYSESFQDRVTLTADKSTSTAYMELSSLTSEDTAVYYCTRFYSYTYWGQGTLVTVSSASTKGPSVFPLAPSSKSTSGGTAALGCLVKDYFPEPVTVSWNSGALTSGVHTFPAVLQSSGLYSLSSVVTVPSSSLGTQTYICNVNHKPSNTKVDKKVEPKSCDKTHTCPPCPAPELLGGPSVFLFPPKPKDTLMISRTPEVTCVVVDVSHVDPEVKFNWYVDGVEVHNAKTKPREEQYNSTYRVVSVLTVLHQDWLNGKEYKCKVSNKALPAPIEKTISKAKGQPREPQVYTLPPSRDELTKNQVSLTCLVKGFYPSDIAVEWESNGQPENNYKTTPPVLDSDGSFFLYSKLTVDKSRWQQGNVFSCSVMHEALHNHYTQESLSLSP
light: B1 light
notes: also called Ho Ab E269_03V
B10: GpH7-B3 variant A327_13S/GpL16-k0 (antibody, human IgG1, kappa)
heavy: not shown
light: B1 light
notes: also called Ho Ab A327_13S
B11: GpH7-B3 variant E269_08L/GpL16-k0 (antibody, human IgG1, kappa)
heavy: not shown
light: B1 light
notes: also called Ho Ab E269_08L
B12: GpH7-B3 variant E269_13S/GpL16-k0 (antibody, human IgG1, kappa)
heavy: not shown
light: B1 light
notes: also called Ho Ab E269_13S
B13: GpH7-B3 variant E269_09D/GpL16-k0 (antibody, human IgG1, kappa)
heavy: not shown
light: B1 light
notes: also called Ho Ab E269_09D
B14: GpH7-B3 variant E269_04F/GpL16-k0 (antibody, human IgG1, kappa)
heavy: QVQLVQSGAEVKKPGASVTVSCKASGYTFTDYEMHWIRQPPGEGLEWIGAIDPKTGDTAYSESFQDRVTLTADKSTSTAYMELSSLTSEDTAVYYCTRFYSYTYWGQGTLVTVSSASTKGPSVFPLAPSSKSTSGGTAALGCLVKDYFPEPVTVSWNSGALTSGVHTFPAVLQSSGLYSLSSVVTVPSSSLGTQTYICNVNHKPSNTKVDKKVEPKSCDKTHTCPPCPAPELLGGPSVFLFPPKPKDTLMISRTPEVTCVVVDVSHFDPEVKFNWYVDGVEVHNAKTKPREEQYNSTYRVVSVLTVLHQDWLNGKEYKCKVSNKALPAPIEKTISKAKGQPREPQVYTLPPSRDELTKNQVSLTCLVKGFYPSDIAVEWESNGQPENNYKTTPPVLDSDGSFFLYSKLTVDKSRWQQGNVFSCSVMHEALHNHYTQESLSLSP
light: B1 light
notes: also called Ho Ab E269_04F
B15: GpH7-B3 variant A330_14T/GpL16-k0 (antibody, human IgG1, kappa)
heavy: not shown
light: B1 light
notes: also called Ho Ab A330_14T
B16: GpH7-B3 variant E269_02A/GpL16-k0 (antibody, human IgG1, kappa)
heavy: not shown
light: B1 light
notes: also called Ho Ab E269_02A
B17: GpH7-B3 variant A330_08L/GpL16-k0 (antibody, human IgG1, kappa)
heavy: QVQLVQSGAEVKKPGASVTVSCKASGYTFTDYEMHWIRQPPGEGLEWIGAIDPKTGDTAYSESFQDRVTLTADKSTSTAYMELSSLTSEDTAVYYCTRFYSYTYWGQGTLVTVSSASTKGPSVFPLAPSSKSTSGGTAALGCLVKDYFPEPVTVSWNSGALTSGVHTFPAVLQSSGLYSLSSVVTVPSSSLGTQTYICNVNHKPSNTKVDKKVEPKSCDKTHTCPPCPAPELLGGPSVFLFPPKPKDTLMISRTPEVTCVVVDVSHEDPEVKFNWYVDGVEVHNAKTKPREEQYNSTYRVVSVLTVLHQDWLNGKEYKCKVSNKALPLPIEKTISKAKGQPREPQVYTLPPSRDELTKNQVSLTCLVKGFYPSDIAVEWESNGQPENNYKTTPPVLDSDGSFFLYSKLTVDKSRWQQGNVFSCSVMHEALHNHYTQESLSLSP
light: B1 light
notes: also called Ho Ab A330_08L
B18: GpH7-B3 variant E269_16H/GpL16-k0 (antibody, human IgG1, kappa)
heavy: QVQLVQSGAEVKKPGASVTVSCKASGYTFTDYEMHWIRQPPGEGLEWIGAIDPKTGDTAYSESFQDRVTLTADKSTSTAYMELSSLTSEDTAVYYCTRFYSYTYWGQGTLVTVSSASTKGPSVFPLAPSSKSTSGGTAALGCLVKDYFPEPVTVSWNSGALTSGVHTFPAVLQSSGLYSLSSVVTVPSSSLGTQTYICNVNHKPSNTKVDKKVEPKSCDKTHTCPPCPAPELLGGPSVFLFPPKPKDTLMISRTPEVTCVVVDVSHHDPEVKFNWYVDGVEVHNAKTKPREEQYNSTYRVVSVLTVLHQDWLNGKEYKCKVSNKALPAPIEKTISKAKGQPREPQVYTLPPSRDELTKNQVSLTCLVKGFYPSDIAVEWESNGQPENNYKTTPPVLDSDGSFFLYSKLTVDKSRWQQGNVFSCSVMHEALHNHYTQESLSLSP
light: B1 light
notes: also called Ho Ab E269_16H
B19: GpH7-B3 variant E269_15Y/GpL16-k0 (antibody, human IgG1, kappa)
heavy: not shown
light: B1 light
notes: also called Ho Ab E269_15Y
B20: GpH7-B3 variant A330_05P/GpL16-k0 (antibody, human IgG1, kappa)
heavy: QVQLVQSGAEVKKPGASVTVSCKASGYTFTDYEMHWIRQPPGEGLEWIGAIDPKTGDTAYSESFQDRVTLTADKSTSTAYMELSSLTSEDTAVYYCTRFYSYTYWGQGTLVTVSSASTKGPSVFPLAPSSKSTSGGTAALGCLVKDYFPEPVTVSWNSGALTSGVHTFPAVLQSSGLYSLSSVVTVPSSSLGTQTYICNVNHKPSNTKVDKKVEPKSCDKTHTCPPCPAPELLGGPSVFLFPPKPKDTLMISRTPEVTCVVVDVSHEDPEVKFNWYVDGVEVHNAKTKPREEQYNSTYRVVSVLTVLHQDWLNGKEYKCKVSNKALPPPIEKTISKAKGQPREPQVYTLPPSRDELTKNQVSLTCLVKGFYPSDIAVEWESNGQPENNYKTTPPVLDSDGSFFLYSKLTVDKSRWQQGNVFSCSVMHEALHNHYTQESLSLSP
light: B1 light
notes: also called Ho Ab A330_05P
B21: GpH7-B3 variant A327_10E/GpL16-k0 (antibody, human IgG1, kappa)
heavy: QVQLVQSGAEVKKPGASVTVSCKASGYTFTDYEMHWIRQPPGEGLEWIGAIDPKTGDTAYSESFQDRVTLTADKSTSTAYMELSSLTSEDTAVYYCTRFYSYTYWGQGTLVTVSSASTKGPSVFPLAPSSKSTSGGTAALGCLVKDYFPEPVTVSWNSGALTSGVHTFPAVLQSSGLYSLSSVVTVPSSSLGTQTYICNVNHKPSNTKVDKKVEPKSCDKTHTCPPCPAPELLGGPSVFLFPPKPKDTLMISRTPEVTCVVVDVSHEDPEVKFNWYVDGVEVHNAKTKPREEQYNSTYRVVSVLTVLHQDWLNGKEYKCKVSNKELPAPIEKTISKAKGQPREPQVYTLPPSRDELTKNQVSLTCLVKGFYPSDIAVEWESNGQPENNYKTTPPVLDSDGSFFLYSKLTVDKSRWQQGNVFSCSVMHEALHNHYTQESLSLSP
light: B1 light
notes: also called Ho Ab A327_10E
B22: GpH7-B3 variant E269_05P/GpL16-k0 (antibody, human IgG1, kappa)
heavy: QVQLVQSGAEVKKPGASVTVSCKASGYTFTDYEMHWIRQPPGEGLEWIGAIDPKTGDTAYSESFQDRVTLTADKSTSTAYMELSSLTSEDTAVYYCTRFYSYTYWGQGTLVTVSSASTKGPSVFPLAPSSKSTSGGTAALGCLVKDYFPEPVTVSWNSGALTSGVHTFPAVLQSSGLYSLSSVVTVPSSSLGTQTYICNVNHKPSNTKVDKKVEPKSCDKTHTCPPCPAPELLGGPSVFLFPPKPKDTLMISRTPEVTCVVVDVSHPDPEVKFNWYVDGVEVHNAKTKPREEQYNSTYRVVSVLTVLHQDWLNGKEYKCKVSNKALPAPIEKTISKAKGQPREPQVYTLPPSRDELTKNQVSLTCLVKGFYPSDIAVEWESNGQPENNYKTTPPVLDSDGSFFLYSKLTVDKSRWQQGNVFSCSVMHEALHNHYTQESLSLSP
light: B1 light
notes: also called Ho Ab E269_05P
B23: GpH7-B3 variant A327_03V/GpL16-k0 (antibody, human IgG1, kappa)
heavy: not shown
light: B1 light
notes: also called Ho Ab A327_03V
B24: GpH7-B3 variant A327_07I/GpL16-k0 (antibody, human IgG1, kappa)
heavy: not shown
light: B1 light
notes: also called Ho Ab A327_07I
B25: GpH7-B3 variant E269_06M/GpL16-k0 (antibody, human IgG1, kappa)
heavy: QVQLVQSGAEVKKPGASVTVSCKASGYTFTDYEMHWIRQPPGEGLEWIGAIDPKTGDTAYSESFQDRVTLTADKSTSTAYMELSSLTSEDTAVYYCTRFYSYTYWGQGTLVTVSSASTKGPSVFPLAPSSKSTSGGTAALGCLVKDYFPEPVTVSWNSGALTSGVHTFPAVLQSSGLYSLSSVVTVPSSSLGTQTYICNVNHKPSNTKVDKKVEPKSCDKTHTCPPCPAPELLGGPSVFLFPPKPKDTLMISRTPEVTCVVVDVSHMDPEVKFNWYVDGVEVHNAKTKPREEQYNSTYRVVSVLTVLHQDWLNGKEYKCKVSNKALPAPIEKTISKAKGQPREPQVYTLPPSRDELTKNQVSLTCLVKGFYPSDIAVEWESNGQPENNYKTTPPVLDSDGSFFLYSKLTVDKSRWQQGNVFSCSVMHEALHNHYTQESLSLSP
light: B1 light
notes: also called Ho Ab E269_06M
B26: GpH7-A5/GpH7-B3 variant S239_09D/GpL16-k0 (antibody, human IgG1, kappa)
heavy 1: not shown
heavy 2: not shown
light: B1 light
notes: also called He Ab S239_09D
B27: GpH7-A5/GpH7-B3 variant K334_15Y/GpL16-k0 (antibody, human IgG1, kappa)
heavy 1: not shown
heavy 2: not shown
light: B1 light
notes: also called He Ab K334_15Y

Biological target: T1, FcγRIa (human, UniProt P12314 16-292)
T1 construct: extracellular domain; also called FcgRI; 1a
T1 sequence (P12314 16-292): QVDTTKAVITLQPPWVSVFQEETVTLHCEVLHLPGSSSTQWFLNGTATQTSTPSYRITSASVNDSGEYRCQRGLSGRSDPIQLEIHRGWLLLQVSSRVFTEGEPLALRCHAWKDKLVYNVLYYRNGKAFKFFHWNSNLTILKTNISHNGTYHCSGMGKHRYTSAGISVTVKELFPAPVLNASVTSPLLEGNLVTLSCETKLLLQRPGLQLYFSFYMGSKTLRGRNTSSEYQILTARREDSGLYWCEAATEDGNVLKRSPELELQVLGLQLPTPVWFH
Test: SPR (Biacore); Ho Ab relative to HoCon Ab = 100
Protocol: Analysis of interaction between objective antibody and the FcγR was carried out using Biacore T100 (GE Healthcare). HBS-EP+ (GE Healthcare) was used as the running buffer, and the measurement temperature was set to 25° C. Chips produced by immobilizing the antigen peptide by the amine coupling method to a Series S Sencor Chip CM5 (GE Healthcare), or alternatively, chips produced by allowing preliminarily biotinylated antigen peptides to interact with and immobilize onto a Series S Sensor Chip SA (certified) (GE Healthcare) were used. Antibodies of interest were captured onto an antigen peptide-immobilized chip, and allowed to interact to each FcγR diluted with running buffer. To regenerate and repeatedly use the chip, the antibodies captured on the chip were washed off by reacting 10 mM glycine-HCl, pH 1.5.

Ho/Con_1a	Binder
97.4 % of control	B1
93.1 % of control	B2
94.1 % of control	B3
96.2 % of control	B4
97.1 % of control	B5
108 % of control	B6
104 % of control	B7
102 % of control	B8
95.4 % of control	B9
86.1 % of control	B10
101 % of control	B11
95.9 % of control	B12
106 % of control	B13
102 % of control	B14
105 % of control	B15
96.2 % of control	B16
106 % of control	B17
98.4 % of control	B18
100 % of control	B19
84.4 % of control	B20
98.8 % of control	B21
95.7 % of control	B22
94.4 % of control	B23
95.5 % of control	B24
101 % of control	B25

Biological target: T2, FcγRIIIa extracellular domain with C-terminal His tag (human, UniProt P08637 17-208)
T2 construct: extracellular domain; also called FcgRIIIa; 3a; not shown: His tag attached to the C terminus
T2 sequence (P08637 17-208): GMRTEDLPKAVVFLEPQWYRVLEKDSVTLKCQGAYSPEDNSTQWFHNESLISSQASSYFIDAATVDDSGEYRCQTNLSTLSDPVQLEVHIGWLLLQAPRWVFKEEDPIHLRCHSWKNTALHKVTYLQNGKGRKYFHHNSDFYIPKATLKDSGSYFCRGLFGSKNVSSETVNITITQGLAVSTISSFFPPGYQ
Test: SPR Biacore, captured antibody, FcγR analyte, relative binding
Procedure, shortened: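 Binding of FcγR analyte to peptide-captured antibody is read by surface plasmon resonance at 25° C in HBS-EP+ buffer. Capture surfaces carry antigen peptide, either amine-coupled or biotin/streptavidin-bound.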

He/Con_3a	Binder
166 % of HeCon Ab GpH7-A5/GpH7-B3/GpL16-k0 (=100)	B26
141 % of HeCon Ab GpH7-A5/GpH7-B3/GpL16-k0 (=100)	B27
